Values of other authors in patent US5679705A, “Triterpene derivatives with immunosuppressant activity” (Merck & Co., Inc., priority 1996, dated 1997).
pIC50: −log10 of the molar value.

Target: T1, Kv 1.3 channels (CHO cells transfected with Kv 1.3 channels) (Homo sapiens, UniProt P22001)
T1 construct: expressed in transfected cells; host or cells: CHO cells
Conditions: stated in the method for the peptide used to establish the efflux window; read-out: IC50 (blocker of Kv 1.3 channels)

T1 sequence (P22001 whole entry): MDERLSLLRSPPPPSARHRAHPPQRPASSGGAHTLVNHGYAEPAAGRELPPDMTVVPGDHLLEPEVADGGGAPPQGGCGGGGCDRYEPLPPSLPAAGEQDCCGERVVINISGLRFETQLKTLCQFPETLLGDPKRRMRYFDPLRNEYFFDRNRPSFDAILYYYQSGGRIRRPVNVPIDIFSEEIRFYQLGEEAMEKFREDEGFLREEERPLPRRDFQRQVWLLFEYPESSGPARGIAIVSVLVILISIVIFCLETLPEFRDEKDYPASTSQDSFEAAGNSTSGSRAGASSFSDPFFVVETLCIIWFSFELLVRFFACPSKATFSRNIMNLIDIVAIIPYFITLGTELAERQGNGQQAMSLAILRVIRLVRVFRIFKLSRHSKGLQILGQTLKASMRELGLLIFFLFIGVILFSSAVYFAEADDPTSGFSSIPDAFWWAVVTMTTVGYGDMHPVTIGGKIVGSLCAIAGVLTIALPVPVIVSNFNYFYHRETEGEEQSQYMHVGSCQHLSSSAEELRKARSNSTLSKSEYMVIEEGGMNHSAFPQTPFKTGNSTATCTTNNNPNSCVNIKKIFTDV

Substance: margatoxin (TIINVKCTSPKQCLPPCKAQFGQSAGAKCMNGKCKCYPH; UniProt P40755 1-39, looked up)
- pIC50: 10.00
